Results from IntAct's records for PubMed 22265973.

B1: Synaptotagmin-2 (Rattus norvegicus (Rat)), P29101 (parent)
chain: MRNIFKRNQEPIVAPATTTATMPLAPAAPADNSTESTGTGESQEDMFAKLKDKFFNEINKIPLPPWALIAMAVVAGLLLLTCCFCICKKCCCKKKKNKKEKGKGMKNAMNMKDMKGGQDDDDAETGLTEGEGEGEEEKEPENLGKLQFSLDYDFQANQLTVGVLQAAELPALDMGGTSDPYVKVFLLPDKKKKYETKVHRKTLNPAFNETFTFKVPYQELGGKTLVMAIYDFDRFSKHDIIGEVKVPMNTVDLGQPIEEWRDLQGGEKEEPEKLGDICTSLRYVPTAGKLTVCILEAKNLKKMDVGGLSDPYVKIHLMQNGKRLKKKKTTVKKKTLNPYFNESFSFEIPFEQIQKVQVVVTVLDYDKLGKNEAIGKIFVGSNATGTELRHWSDMLANPRRPIAQWHSLKPEEEVDALLGKNK

Variants of: B1
Conditions: with bxb_clobo botB
In the case of MRNIFKRNQEPIVAPATTTATMPLAPAAPADNSTESTGTGESQEDMFAKLKDKAFNEINKIPLPPWALIAMAVVAGLLLLTCCFCICKKCCCKKKKNKKEKGKGMKNAMNMKDMKGGQDDDDAETGLTEGEGEGEEEKEPENLGKLQFSLDYDFQANQLTVGVLQAAELPALDMGGTSDPYVKVFLLPDKKKKYETKVHRKTLNPAFNETFTFKVPYQELGGKTLVMAIYDFDRFSKHDIIGEVKVPMNTVDLGQPIEEWRDLQGGEKEEPEKLGDICTSLRYVPTAGKLTVCILEAKNLKKMDVGGLSDPYVKIHLMQNGKRLKKKKTTVKKKTLNPYFNESFSFEIPFEQIQKVQVVVTVLDYDKLGKNEAIGKIFVGSNATGTELRHWSDMLANPRRPIAQWHSLKPEEEVDALLGKNK [F54A], the “effect of a mutation on the interaction” value is reported as “disrupting interaction”.

Variants of: B1
Conditions: with bxb_clobo botB
Remark: another data set of the same source
MRNIFKRNQEPIVAPATTTATMPLAPAAPADNSTESTGTGESQEDMFAKLKDKLFNEINKIPLPPWALIAMAVVAGLLLLTCCFCICKKCCCKKKKNKKEKGKGMKNAMNMKDMKGGQDDDDAETGLTEGEGEGEEEKEPENLGKLQFSLDYDFQANQLTVGVLQAAELPALDMGGTSDPYVKVFLLPDKKKKYETKVHRKTLNPAFNETFTFKVPYQELGGKTLVMAIYDFDRFSKHDIIGEVKVPMNTVDLGQPIEEWRDLQGGEKEEPEKLGDICTSLRYVPTAGKLTVCILEAKNLKKMDVGGLSDPYVKIHLMQNGKRLKKKKTTVKKKTLNPYFNESFSFEIPFEQIQKVQVVVTVLDYDKLGKNEAIGKIFVGSNATGTELRHWSDMLANPRRPIAQWHSLKPEEEVDALLGKNK [F54L] was tested, and the “effect of a mutation on the interaction” value was “disrupting interaction”.
